Data on 35 variants can be found in the Human Domainome abundance scans (Beltran et al. 2025).

First the molecules themselves.
B1: Protein S100-G, residues 1 to 79; numbered along this chain, P02633 (parent)
chain: MSAKKSPEELKGIFEKYAAKEGDPNQLSKEELKLLLQTEFPSLLKGPSTLDELFEELDKNGDGEVSFEEFQVLVKKISQ

± gives the uncertainty stated by the source.

The variants in the data set derive from B1. Briefly: abundance fitness (aPCA) (normalised: wild type 0, dead -1); higher = more abundant; growth selection in yeast, the domain comes from the species named. As to conditions: Bos taurus.
For MSAKKSPEELKGIFEKYAAKEGDPNQLSKEELKLLLQTEFPSLLKGPSTLDELFEELDKNGDGEVMFEEFQVLVKKISQ [S66M], the abundance fitness amounted to 0.008 ± 0.085.

Turning to MSAKKSPEELKGIFEKYAAKEGDPNQLSKEELKLLLQTEFPSLLKGPSTLDELFEELDKNMDGEVSFEEFQVLVKKISQ [G61M], the abundance fitness was -0.026 ± 0.091.

As to MSAKKSPEELKGIFEKYAAKIGDPNQLSKEELKLLLQTEFPSLLKGPSTLDELFEELDKNGDGEVSFEEFQVLVKKISQ [E21I], the abundance fitness was -0.027 ± 0.081.

MSAKKSPEELKGIFEKYAAKEGDPNQLSKEELKLLVQTEFPSLLKGPSTLDELFEELDKNGDGEVSFEEFQVLVKKISQ [L36V]: the abundance fitness was -0.01 ± 0.067.

Take MSAKKSPEELKGIFEKYAAKEEDPNQLSKEELKLLLQTEFPSLLKGPSTLDELFEELDKNGDGEVSFEEFQVLVKKISQ [G22E]: the abundance fitness is -0.17 ± 0.094.

On to MSAKKSPEELFGIFEKYAAKEGDPNQLSKEELKLLLQTEFPSLLKGPSTLDELFEELDKNGDGEVSFEEFQVLVKKISQ [K11F], for which the abundance fitness is 0.023 ± 0.08.

On to MSAKKSPEELKGIHEKYAAKEGDPNQLSKEELKLLLQTEFPSLLKGPSTLDELFEELDKNGDGEVSFEEFQVLVKKISQ [F14H], for which the abundance fitness was -0.971 ± 0.093.

On to MSAKKSPEELKGIFEKYAAKEGDSNQLSKEELKLLLQTEFPSLLKGPSTLDELFEELDKNGDGEVSFEEFQVLVKKISQ [P24S], for which the abundance fitness worked out at 0.06 ± 0.065.

In the case of MSAKKSPEELKGIFEKYAAKEGDPNQLSKEELKLLLQTEFPSLLKGPFTLDELFEELDKNGDGEVSFEEFQVLVKKISQ [S48F], the abundance fitness was -0.062 ± 0.072.

Regarding MSAKKSPFELKGIFEKYAAKEGDPNQLSKEELKLLLQTEFPSLLKGPSTLDELFEELDKNGDGEVSFEEFQVLVKKISQ [E8F], the abundance fitness was -0.079 ± 0.074.

Take MSAKKSPEELKGIFEKYAAKEGDPNQLSKEELKLLLQTEFPSLLKGPSTLDELFEWLDKNGDGEVSFEEFQVLVKKISQ [E56W]: the abundance fitness was -0.076 ± 0.092.

With MSAKKSPEELKGIFEKYAAKEGDPGQLSKEELKLLLQTEFPSLLKGPSTLDELFEELDKNGDGEVSFEEFQVLVKKISQ [N25G], the abundance fitness is -0.021 ± 0.076.

MSAKKSPEELKGIFEKYAAKEGDPNQLSKEELKLLLQTEFPSLLKGPSTLDELFEELDKNGDGEVSFEEFGVLVKKISQ [Q71G]: the abundance fitness came to 0.009 ± 0.08.

MSAKKSPEELKGIFEKYAAKEGDPNQLSKEELKLLLQTEFPSLLKGPSTLDELFEELDKNGDGEVSFEEFQVLIKKISQ [V74I]: the abundance fitness was 0.066 ± 0.067.

Turning to MSEKKSPEELKGIFEKYAAKEGDPNQLSKEELKLLLQTEFPSLLKGPSTLDELFEELDKNGDGEVSFEEFQVLVKKISQ [A3E], the abundance fitness is -0.095 ± 0.094.

Regarding MSMKKSPEELKGIFEKYAAKEGDPNQLSKEELKLLLQTEFPSLLKGPSTLDELFEELDKNGDGEVSFEEFQVLVKKISQ [A3M], the abundance fitness amounted to 0.013 ± 0.081.

MSAKKSPEELKGIFEKYAAKEGDPNQLSKEELKLLLQTEFPSLLKGPSTLDELFEELDKNGDGEVSFAEFQVLVKKISQ [E68A]: the abundance fitness was -0.016 ± 0.064.

As for MSAKKSPEELKGIFEKYAAKEGDPNQLSKEELKLLLCTEFPSLLKGPSTLDELFEELDKNGDGEVSFEEFQVLVKKISQ [Q37C], the abundance fitness was -0.076 ± 0.083.

MSAKKSPEELKGIFEKAAAKEGDPNQLSKEELKLLLQTEFPSLLKGPSTLDELFEELDKNGDGEVSFEEFQVLVKKISQ [Y17A]: the abundance fitness was -0.129 ± 0.074.

For the variant MSAKKSPEELKGIFEKYAAKEGDPNQLSKEELKLLLQTEFPSLLKGPSTLDELFEEHDKNGDGEVSFEEFQVLVKKISQ [L57H], the abundance fitness is -0.031 ± 0.086.

In the case of MSAKKLPEELKGIFEKYAAKEGDPNQLSKEELKLLLQTEFPSLLKGPSTLDELFEELDKNGDGEVSFEEFQVLVKKISQ [S6L], the abundance fitness is -0.15 ± 0.063.

With MSAKMSPEELKGIFEKYAAKEGDPNQLSKEELKLLLQTEFPSLLKGPSTLDELFEELDKNGDGEVSFEEFQVLVKKISQ [K5M], the abundance fitness is -0.017 ± 0.082.

For MSAKKSPEELKGIFEKYAAKEGDPNQLSKEELKLLLQTEFPSPLKGPSTLDELFEELDKNGDGEVSFEEFQVLVKKISQ [L43P], the abundance fitness is -0.032 ± 0.073.

With MSAKKSPEELKGIFEKYAAAEGDPNQLSKEELKLLLQTEFPSLLKGPSTLDELFEELDKNGDGEVSFEEFQVLVKKISQ [K20A], the abundance fitness is -0.119 ± 0.071.

Turning to MSAKKSPEELKGIFEKYAAKEGDPNQLSKEELKLLLQTEFPSLLKGPSTLDELNEELDKNGDGEVSFEEFQVLVKKISQ [F54N], the abundance fitness was 0.039 ± 0.084.

On to MSAKKSPEELKEIFEKYAAKEGDPNQLSKEELKLLLQTEFPSLLKGPSTLDELFEELDKNGDGEVSFEEFQVLVKKISQ [G12E], for which the abundance fitness was -0.165 ± 0.091.

For MSAKKSCEELKGIFEKYAAKEGDPNQLSKEELKLLLQTEFPSLLKGPSTLDELFEELDKNGDGEVSFEEFQVLVKKISQ [P7C], the abundance fitness is -0.021 ± 0.082.

With MSAKKSHEELKGIFEKYAAKEGDPNQLSKEELKLLLQTEFPSLLKGPSTLDELFEELDKNGDGEVSFEEFQVLVKKISQ [P7H], the abundance fitness was -0.067 ± 0.076.

For the variant MSAKKSPEELKGIFEKYAAKEGDPNQLSKEELKLLLQTEFPSLLKGPSTLRELFEELDKNGDGEVSFEEFQVLVKKISQ [D51R], the abundance fitness was -0.07 ± 0.062.

Turning to MSAKKSPEELKGIFEKYAAKEGDPNQLSKEELKLLLQTEFPSLLKWPSTLDELFEELDKNGDGEVSFEEFQVLVKKISQ [G46W], the abundance fitness was -0.087 ± 0.077.

Take MSAKKSPEELKGIFEKYAAKEGDPNQLSKEELKLLLQTEFPSLLKGPSRLDELFEELDKNGDGEVSFEEFQVLVKKISQ [T49R]: the abundance fitness was -0.057 ± 0.069.

Regarding MSAKKSPEELKGIFEKYAAKEGDPNQYSKEELKLLLQTEFPSLLKGPSTLDELFEELDKNGDGEVSFEEFQVLVKKISQ [L27Y], the abundance fitness was -0.764 ± 0.092.

Take MSAKKSPEELKGIFEKYAAKEGDPNQLSKEELKLLLQTEFPSLLKGPSTLDELFEELDKNGDGEVSFEEFQVLVRKISQ [K75R]: the abundance fitness was -0.074 ± 0.068.

MSAKKSPEELKGIFEKYAAKEGDPNQLSKEELKLLLQTEFPSLLKGPSTLDELFEELDKNGDGEVSFEEFQVLVFKISQ [K75F]: the abundance fitness was -0.151 ± 0.075.

MSAKKSPEELKGIFEKYAAKEGDPNQLSKEELKLLLQTEFPSLLKGPSTLDELFEELDKNGDMEVSFEEFQVLVKKISQ [G63M]: the abundance fitness is -0.019 ± 0.08.
